In paper PMC8108516 (Molecular Biology of the Cell, 2021):

Key:
Experiment in all cases: pull-down
GST tagged Pom1^FL = biological target: T1, GST tagged Pom1^FL (S. pombe, UniProt Q09690 1-1087)
T1 sequence (looked up): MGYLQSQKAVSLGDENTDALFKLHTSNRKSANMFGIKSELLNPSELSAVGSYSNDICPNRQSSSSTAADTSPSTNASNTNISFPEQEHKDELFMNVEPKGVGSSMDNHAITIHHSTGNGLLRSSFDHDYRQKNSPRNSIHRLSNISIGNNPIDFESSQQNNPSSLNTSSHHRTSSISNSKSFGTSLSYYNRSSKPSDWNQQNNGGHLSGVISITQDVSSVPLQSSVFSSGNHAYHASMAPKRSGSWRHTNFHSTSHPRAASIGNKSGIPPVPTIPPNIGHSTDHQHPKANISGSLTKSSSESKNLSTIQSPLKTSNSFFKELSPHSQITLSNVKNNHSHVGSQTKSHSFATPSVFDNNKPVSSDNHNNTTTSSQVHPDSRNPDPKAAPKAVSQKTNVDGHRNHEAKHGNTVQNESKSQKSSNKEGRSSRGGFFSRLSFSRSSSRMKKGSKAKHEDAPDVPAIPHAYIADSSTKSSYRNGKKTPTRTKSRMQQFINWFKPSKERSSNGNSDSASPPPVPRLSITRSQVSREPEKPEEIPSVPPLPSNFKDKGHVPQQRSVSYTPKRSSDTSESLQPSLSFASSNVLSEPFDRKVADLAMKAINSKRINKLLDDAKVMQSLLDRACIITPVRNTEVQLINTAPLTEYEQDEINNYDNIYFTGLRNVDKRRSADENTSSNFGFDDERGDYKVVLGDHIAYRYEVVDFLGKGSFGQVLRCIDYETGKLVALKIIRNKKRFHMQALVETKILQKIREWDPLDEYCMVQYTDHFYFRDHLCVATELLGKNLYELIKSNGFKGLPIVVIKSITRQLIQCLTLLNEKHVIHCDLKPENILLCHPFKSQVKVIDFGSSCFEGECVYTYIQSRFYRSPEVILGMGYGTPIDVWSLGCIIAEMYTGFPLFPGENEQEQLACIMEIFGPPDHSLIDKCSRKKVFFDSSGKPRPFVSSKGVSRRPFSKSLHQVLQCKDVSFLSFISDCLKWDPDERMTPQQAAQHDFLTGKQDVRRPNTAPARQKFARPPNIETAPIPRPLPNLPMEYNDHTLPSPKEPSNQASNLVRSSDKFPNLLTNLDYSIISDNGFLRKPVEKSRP

GST tagged Pom1^Δaa305N = biological target: T2, GST tagged Pom1^Δaa305N (S. pombe, UniProt Q09690 306-1087)
T2 sequence (looked up): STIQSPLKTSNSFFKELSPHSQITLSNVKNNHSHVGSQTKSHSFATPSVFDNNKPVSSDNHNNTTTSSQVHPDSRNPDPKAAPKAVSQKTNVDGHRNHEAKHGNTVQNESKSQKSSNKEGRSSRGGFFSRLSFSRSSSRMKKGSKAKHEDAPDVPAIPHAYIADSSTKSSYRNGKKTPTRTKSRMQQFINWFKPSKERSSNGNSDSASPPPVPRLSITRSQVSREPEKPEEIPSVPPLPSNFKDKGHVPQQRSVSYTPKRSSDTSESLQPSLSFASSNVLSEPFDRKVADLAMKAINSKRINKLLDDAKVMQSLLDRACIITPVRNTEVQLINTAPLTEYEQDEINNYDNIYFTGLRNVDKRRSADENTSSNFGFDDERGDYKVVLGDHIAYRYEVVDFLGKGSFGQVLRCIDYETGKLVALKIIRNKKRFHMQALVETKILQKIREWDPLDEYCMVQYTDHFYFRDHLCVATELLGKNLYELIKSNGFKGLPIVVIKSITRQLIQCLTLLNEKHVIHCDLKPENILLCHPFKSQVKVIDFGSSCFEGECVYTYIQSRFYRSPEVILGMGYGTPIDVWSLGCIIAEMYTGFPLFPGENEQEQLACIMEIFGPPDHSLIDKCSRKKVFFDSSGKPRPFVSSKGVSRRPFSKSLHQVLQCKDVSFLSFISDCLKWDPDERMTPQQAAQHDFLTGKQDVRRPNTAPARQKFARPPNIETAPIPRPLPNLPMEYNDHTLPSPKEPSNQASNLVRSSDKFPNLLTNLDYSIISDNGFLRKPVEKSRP

[1] = biological target: T3, GST tagged Pom1^aa605-1087 (S. pombe, UniProt Q09690 605-1087)
T3 sequence (looked up): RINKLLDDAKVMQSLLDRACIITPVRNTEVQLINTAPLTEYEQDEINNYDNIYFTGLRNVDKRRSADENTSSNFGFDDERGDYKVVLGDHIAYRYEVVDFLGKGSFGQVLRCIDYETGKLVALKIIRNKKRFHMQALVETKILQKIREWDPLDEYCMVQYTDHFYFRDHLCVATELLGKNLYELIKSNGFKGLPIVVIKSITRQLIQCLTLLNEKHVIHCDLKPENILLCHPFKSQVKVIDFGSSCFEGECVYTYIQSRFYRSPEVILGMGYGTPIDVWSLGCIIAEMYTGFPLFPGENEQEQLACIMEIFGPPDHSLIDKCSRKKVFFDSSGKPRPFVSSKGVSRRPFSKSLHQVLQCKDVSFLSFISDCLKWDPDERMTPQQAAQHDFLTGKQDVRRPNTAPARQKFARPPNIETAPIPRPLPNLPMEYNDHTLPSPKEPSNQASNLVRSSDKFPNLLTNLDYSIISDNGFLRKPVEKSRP

Measured: binding result

B1: MBP-tagged Ptc1^FL (enzyme, S. pombe, UniProt P40371 1-347, looked up)
chain: MKGSHPNAGSLLEPLHKLNPFSENSTSGHRKNASDHSADGETRPIAIEMKDSKGNTVPVGNSRPSKASNWLAGLMEDKNQRWRRSMEDTHICLYDFGGNQDDGFVAVYDGHAGIQASDYCQKNLHKVLLEKVRNEPDRLVTDLMDETFVEVNSKIAKATHNDICGCTAAVAFFRYEKNRTRRVLYTANAGDARIVLCRDGKAIRLSYDHKGSDANESRRVTQLGGLMVQNRINGVLAVTRALGDTYLKELVSAHPFTTETRIWNGHDEFFIIACDGLWDVVSDQEAVDFVRNFVSPREAAVRLVEFALKRLSTDNITCIVVNLTRNPGDLDDSGLTADNDSYSNDYY
binds: GST tagged Pom1^FL | GST tagged Pom1^Δaa305N | [1]
